How the values were obtained:
[1] = target: biotinylated N8~CRL1 with wild type RBX1 (UniProt Q15843); test: BLI; CSN and N8~CRL1 in a saturating amount of CSN5i-1a; who was immobilised not given
[2] = target: biotinylated N8~CRL1 with wild type RBX1 (UniProt Q15843); test: BLI; CSN and N8~CRL1 in a saturating amount of CSN5i-3; who was immobilised not given

KD with CSN5i-1a [1]: 1.8 µM | KD with CSN5i-3 [2]: 26 nM
Substance: COP9 signalosome (CSN), eight-subunit complex, tag-free (from UniProt Q13098 1-491; P61201 1-443; Q9UNS2 1-409; Q9BT78 1-406; Q92905 1-334; Q7L5N1 1-327; Q9H9Q2 1-239; Q99627 1-209)

— publication doi:10.1101/2025.11.26.690573
